Read-outs that look alike come from different tables or passages of the source.
How the values were obtained:
native MS [1] = target: the molecule itself; assay: native MS
native MS [2] = target: the molecule itself; assay: native MS; remark: listed apart in the source

B1: Wild type SgrAI ENase (enzyme, Streptomyces griseus)
chain: PFTYSIEATRNLATTERCIQDIRNAPVRNRSTQFQLAQQNMLAYTFGEVIPGFASAGINGMNYRDVIGRPVENAVTEGTHFFRDDFRVDSNAKAKVAGDIFEIVSSAVMWNCAARWNSLMVGEGWRSQPRYSRPTLSPSPRRQVAVLNLPRSFDWVSLLVPESQEVIEEFRAGLRKDGLGLPTSTPDLAVVVLPEEFQNDEMWREEIAGLTRPNQILLSGAYQRLQGRVQPGEISLAVAFKRSLRSDRLYQPLYEANVMQLLLEGKLGAPKVEFEVHTLAPEGTNAFVTYEAASLYGLAEGRSAVHRAIRELYVPPTAADLARRFFAFLNERMELVNG
stoichiometry N (native MS [1]): 38 | stoichiometry N (native MS [2]): 2
